Experiment [1] addresses T1, soluble fusion protein KDR-AP (KDR extracellular domain fused to human placental alkaline phosphatase) (human, UniProt P35968 20-764).
T1 construct: extracellular domain; also called immobilized KDR; KDR receptor; not shown: human placental alkaline phosphatase (vector AP-Tag)
The experiment is described as follows: BIAcore, KDR-AP immobilized. The procedure:
The binding kinetics of antibodies to KDR were measured using BIAcore biosensor (Pharmacia Biosensor). […] Sensorgrams were obtained at each concentration and were evaluated using a program, BIA Evaluation 2.0, to determine the rate constants kon and koff. Kd was calculated as the ratio of rate constants koff/kon.
*All rates are determined by surface plasmon resonance using BIAcore system, and are mean of at least three separate determinations.

The target in experiment [2] is T1, soluble fusion protein KDR-AP (KDR …). The experiment in a line: competitive ELISA: KDR-AP binding to immobilized VEGF165. (In general: ELISA stands for enzyme-linked immunosorbent assay.)
Experiment [3] deals with chimeric receptor mouse FLK-1/human fms expressed on transfected 3T3 cells (C441) (mouse; human) (UniProt P35918). The experiment is described as follows: cell-based or functional assay.
Experiment [4] shares this target. The experiment in a line: saturation binding to intact C441 cells, colorimetric detection.
The next experiment deals with KDR expressed on HUVEC (human, UniProt P35968 20-1356). The experiment is described as follows: cell-based or functional assay.
Experiment [5] addresses T1, soluble fusion protein KDR-AP (KDR …). The experiment is described as follows: BIAcore, KDR-AP immobilized. As to the method:
The binding kinetics of soluble scFv to KDR were measured using BIAcore biosensor (Pharmacia Biosensor). KDR-AP fusion protein was immobilized onto a sensor chip and soluble scFv were injected at concentrations ranging from 62.5 nM to 1000 nM. Sensorgrams were obtained at each concentration and were evaluated using a program, BIA Evaluation 2.0, to determine the rate constant kon and koff. Kd was calculated from the ratio of rate constants koff/kon.
This is another data set of the same source. (SPR reads the build-up and loss of mass on a sensor chip optically.)

Experiment [6] has the same target. The experiment is described as follows: competitive VEGF blocking ELISA: KDR-AP binding to immobilized VEGF165.
Experiment [7] has the same target. The experiment in a line: direct binding ELISA on KDR-coated plates (printed ED50, 50% of maximum binding). The procedure: In the direct binding assay, various amounts of soluble scFv were added to KDR-coated 96-well Maxi-sorp microtiter plates and incubated at room temerature for 1 h, after which the plates were washed 3 times with PBST. The plates were then incubated at room temerature for 1 h with 100 μl of mouse anti-E tag antibody followed by incubation with 100 µl of rabbit anti-mouse antibody-HRP conjugate. The plates were washed and developed following the procedure described above for the phage ELISA.

The values below come from US20030103973A1 (published 2003).

Like-named read-outs stand apart in the source and are kept apart here.

T1 sequence (P35968 20-764): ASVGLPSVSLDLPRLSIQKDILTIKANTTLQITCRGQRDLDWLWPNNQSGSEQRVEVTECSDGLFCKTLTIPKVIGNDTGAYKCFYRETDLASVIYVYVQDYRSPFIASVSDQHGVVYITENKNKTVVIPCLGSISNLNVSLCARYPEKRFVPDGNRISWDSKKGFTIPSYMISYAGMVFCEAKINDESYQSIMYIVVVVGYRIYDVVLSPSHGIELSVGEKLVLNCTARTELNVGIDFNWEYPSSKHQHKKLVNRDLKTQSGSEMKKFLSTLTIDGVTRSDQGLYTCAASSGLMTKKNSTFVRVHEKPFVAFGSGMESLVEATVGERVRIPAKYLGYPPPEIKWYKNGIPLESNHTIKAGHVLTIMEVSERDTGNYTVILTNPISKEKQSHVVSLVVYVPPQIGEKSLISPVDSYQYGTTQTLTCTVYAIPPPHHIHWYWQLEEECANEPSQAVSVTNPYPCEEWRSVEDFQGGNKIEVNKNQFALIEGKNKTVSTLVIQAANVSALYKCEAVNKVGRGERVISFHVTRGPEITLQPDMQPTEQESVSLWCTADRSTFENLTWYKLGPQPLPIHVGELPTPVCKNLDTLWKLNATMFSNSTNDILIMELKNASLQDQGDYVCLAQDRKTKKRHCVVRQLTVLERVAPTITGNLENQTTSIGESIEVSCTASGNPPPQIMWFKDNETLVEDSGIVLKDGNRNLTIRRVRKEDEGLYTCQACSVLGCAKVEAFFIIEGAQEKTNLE
chimeric receptor mouse FLK-1/human fms expressed on transfected 3T3 cells (C441) (mouse; human), sequence (P35918 other isoform, or with tags, fused parts or gaps mutant limits assumed): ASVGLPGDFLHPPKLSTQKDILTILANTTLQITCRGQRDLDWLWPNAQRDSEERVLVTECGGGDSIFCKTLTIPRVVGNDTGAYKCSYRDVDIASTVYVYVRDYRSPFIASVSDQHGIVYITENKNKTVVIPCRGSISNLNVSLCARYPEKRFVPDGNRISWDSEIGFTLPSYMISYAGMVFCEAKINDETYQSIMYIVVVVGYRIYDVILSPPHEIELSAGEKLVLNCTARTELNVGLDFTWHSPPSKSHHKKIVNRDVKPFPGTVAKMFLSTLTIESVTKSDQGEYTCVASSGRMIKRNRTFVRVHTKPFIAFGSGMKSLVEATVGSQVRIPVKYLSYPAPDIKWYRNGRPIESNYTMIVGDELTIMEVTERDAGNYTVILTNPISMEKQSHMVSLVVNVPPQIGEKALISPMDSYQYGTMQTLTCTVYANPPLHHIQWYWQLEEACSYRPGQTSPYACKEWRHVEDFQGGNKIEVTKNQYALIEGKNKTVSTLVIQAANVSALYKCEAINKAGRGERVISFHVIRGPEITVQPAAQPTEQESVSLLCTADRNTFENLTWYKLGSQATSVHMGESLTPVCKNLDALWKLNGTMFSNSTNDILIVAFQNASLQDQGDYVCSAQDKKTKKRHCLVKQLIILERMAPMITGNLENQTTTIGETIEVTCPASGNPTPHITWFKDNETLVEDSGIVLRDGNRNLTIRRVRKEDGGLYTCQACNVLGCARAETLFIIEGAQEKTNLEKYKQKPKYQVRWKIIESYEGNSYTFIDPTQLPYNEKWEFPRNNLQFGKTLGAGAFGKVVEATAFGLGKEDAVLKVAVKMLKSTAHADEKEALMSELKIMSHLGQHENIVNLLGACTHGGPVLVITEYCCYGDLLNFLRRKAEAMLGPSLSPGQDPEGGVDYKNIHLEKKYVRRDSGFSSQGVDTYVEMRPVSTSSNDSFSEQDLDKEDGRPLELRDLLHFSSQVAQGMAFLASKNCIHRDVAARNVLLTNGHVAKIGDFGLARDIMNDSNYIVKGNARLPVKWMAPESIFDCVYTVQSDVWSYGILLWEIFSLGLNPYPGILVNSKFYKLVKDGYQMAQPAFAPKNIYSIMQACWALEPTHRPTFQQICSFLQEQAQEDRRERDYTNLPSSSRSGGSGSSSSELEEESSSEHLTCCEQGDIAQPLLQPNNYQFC
KDR expressed on HUVEC, sequence (P35968 20-1356): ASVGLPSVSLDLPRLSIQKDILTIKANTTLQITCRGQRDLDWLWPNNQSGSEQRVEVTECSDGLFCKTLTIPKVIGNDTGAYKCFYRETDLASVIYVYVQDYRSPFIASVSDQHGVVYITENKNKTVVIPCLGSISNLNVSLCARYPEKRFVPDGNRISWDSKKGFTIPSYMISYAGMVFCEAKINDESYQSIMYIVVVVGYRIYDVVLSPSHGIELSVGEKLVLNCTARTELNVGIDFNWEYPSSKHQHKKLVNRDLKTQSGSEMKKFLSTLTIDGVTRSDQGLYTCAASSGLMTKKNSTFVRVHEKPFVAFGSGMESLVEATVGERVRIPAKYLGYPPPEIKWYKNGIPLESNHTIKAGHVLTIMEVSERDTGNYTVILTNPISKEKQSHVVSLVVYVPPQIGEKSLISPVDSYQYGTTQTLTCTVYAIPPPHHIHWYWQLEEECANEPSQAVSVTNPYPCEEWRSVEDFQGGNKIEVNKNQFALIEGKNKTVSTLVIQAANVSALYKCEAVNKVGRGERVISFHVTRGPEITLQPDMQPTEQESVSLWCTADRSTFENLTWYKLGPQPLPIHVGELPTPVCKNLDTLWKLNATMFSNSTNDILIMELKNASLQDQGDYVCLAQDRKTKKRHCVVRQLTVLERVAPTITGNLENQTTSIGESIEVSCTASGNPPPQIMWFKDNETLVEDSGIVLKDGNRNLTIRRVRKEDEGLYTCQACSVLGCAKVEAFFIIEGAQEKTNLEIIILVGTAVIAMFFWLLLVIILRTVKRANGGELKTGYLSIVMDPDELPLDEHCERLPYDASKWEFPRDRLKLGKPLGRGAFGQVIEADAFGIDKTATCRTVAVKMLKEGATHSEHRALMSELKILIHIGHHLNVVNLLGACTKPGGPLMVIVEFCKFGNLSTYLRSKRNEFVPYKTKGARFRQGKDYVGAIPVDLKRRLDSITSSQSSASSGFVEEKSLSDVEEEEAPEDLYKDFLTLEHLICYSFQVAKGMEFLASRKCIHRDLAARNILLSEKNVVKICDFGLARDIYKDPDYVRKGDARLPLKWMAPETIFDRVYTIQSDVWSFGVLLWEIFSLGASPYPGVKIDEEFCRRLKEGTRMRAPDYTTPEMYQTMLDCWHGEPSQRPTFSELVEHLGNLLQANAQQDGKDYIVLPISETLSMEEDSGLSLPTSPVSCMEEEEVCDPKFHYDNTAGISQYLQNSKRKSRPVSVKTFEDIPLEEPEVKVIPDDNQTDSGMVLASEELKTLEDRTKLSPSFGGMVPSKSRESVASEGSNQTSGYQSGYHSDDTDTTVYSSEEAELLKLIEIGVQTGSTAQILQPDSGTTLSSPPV

B1: chimeric p1C11 IgG (c-p1C11) (antibody, V domains shown)
VH: QVKLQQSGAELVGSGASVKLSCTTSGFNIKDFYMHWVKQRPEQGLEWIGWIDPENGDSDYAPKFQGKATMTADSSSNTAYLQLSSLTSEDTAVYYCNAYYGDYEGYWGQGTTVTVSS
VL: DIELTQSPAIMSASPGEKVTITCSASSSVSYMHWFQQKPGTSPKLWIYSTSNLASGVPARFSGSGSGTSYSLTISRMEAEDAATYYCQQRSSYPFTFGSGTKLEIK
notes: bivalent IgG made in COS cells; also called chimeric IgG
Take B1: in experiment [1], the equilibrium dissociation constant (Kd) (in general, the free concentration of one partner at which half of the binding sites on the other are occupied at equilibrium, for simple one-to-one binding) stood at 0.82 nM; the koff (usually the rate constant with which the complex falls apart) is 5.2e-05 s⁻¹; the kon – broadly, a measure of how fast the partners come together – turned out to be 63000 M⁻¹ s⁻¹. For the same molecule, the half-inhibitory concentration (IC50) (in general, the concentration at which inhibition is half-maximal) in experiment [2] was determined as 0.8 nM.

B2: rat anti-mouse FLK-1 monoclonal antibody DC-101 (antibody, from another filing, rat IgG1, V domains shown)
VH: EVQLVETGGGLVQPGNSLKLSCATSGFIFSTTWMNWIRQTPGKRLEWLAQIEDKSNNYFISYSESVKGRFTISRDDSKSSVYLQMNNLKEEDTAIYYCSWKYRSNYYFDYWGQGVMVTVSS
VL: DIVLTQSPALAVSLEQRATISCKTSQNVDYYGISYLHWYQQKPGQQPKLLIYEGSNLASGIPARFSGSGSGTDFTLTIDPVEADDIVTYYCQQSKDYPYTFGAGTKLELKR
Consider B2, for which, in experiment [3], the antibody concentration giving a marked decrease in the phosphorylation of FLK-1, competitive conditions is over 0.5 µg/mL; the antibody concentration giving a marked decrease in the phosphorylation of FLK-1 by VEGF165 (40 ng/ml) is over 0.5 µg/mL; the antibody concentration sufficient to inhibit receptor activation by ligand was under 1 µg/mL; the level of FLK-1/fms phosphorylation relative to the fully stimulated receptor control, antibody added with VEGF (densitometry) turned out to be 40%. In experiment [3], this molecule had a level of FLK-1/fms phosphorylation relative to the fully stimulated receptor control, antibody prebound (densitometry) of 6% and a prebound antibody concentration sufficient to completely inhibit receptor activation by ligand of under 1 µg/mL. For the same molecule, in experiment [4], the relative apparent affinity was found to be 500 ng/mL.

B3: anti-KDR single chain antibody p1C11 (scFv)
scFv: QVKLQQSGAELVGSGASVKLSCTTSGFNIKDFYMHWVKQRPEQGLEWIGWIDPENGDSDYAPKFQGKATMTADSSSNTAYLQLSSLTSEDTAVYYCNAYYGDYEGYWGQGTTVTVSSGGGGSGGGGSGGGGSDIELTQSPAIMSASPGEKVTITCSASSSVSYMHWFQQKPGTSPKLWIYSTSNLASGVPARFSGSGSGTSYSLTISRMEAEDAATYYCQQRSSYPFTFGSGTKLEIK
notes: also called scFv p1C11; p1C11 scFv
For the molecule B3, the “EC50, the antibody concentration that inhibited 50% of VEGF-stimulated mitogenesis of HUVEC” value with KDR expressed on HUVEC was about 5 nM. In experiment [5], this molecule had a Kd of 2.1 nM, a koff of 0.00023 s⁻¹ and a kon of 110000 M⁻¹ s⁻¹. In experiment [1], this molecule displayed a Kd of 2.1 nM, a koff of 0.000227 s⁻¹ and an on-rate (kon) of 111000 M⁻¹ s⁻¹. In experiment [2], this molecule returned a half-maximal inhibitory concentration (IC50) of 2 nM. This molecule also came in with a half-inhibitory concentration (IC50) in experiment [6] of 3 nM. For the same molecule, the EC50 (usually the concentration needed to bring the measured effect to its halfway point) in experiment [7] came to 0.3 nM.
